From article PMC9302846, “Three enigmatic BioH isoenzymes are programmed in the early stage of mycobacterial biotin synthesis, an attractive anti-TB drug target” (PLoS Pathogens, 2022)

B1: BioH2 (MSMEG_1352) of M. smegmatis MC2 155, hexa-histidine-tagged (enzyme, Mycobacterium smegmatis MC2 155, UniProt A0QS51 1-305, looked up)
chain: MQTRTGLARAGDADHPIDLFYEDMGDPGDPAVLLIMGLGAQMLMWRTEFCEKLVDQGLRVIRFDNRDVGLSTKLSGQRVDSPLALRMARSFLGKRSPAVYTLEDMADDAAALLDHLEIDRAHIVGGSMGGMIAQVFASQHAARTETLGVIFSSNNQALLPPPGIRQLLSLITGPPADASRDAVLDNAVRLSRLNGSPAYPRSEEEIRAEAAELYDRAYYPAGIARHFAAILGSGSLRHHNERVTAPTVVIHGRADRLMPPSGGRAIANAIRGARMVLIDGMGHELPEPVWDEVIGELKTNFAVVG
notes: BioH2, product of MSMEG_1352 of Mycobacterium smegmatis MC2 155; source: E. coli BL21(DE3), pET28a, purified (nickel column, dialysis)

What was measured:
[1] = target: Seleno-methionine (Se-Met) substituted BioH3 protein (Mycobacterium smegmatis MC2 155) (UniProt A0R6Y0); test: crystal structure; Se-substituted BioH3, sitting-drop vapor diffusion at 16°C; 20 mM citric acid, 80 mM Bis-Tris propane pH 8.8, 16% PEG3350; SAD; space group P2(1), six molecules per asymmetric unit
[2] = target: the molecule itself; test: SEC; Superdex 200 Increase column; protein dialyzed in 20 mM Tris-HCl (pH 8.0), 150 mM NaCl and concentrated to ~15 mg/ml

Row | Molecule | stoichiometry N [1] | binding result [2]
1 | Seleno-methionine (Se-Met) substituted BioH3 protein (from UniProt A0R6Y0 1-282) (enzyme) | 2 | –
2 | B1 | – | binds
